Source: publication PMC10397247
Read-outs that look alike come from different tables or passages of the source.

Experiments:
4H346-bH = biological target: T1, 4H346-bH; assay: two-hybrid library CCNG1;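 note: natural log of median RNA to DNA barcode read ratio; higher means stronger binding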
T1 chain: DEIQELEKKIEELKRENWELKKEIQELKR

4H918-bH = biological target: T2, 4H918-bH; assay: two-hybrid library CCNG1;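 note: natural log of median RNA to DNA barcode read ratio; higher means stronger binding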
T2 chain: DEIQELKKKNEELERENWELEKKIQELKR

4H797-bH = biological target: T3, 4H797-bH; assay: two-hybrid library CCNG1;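 note: natural log of median RNA to DNA barcode read ratio; higher means stronger binding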
T3 chain: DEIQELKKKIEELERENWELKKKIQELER

4H953-bH = biological target: T4, 4H953-bH; assay: two-hybrid library CCNG1;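 note: natural log of median RNA to DNA barcode read ratio; higher means stronger binding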
T4 chain: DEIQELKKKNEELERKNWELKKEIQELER

4H850-bH = biological target: T5, 4H850-bH; assay: two-hybrid library CCNG1;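 note: natural log of median RNA to DNA barcode read ratio; higher means stronger binding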
T5 chain: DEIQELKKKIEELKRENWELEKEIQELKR

4H4073-bH = biological target: T6, 4H4073-bH; assay: two-hybrid library CCNG1;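 note: natural log of median RNA to DNA barcode read ratio; higher means stronger binding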
T6 chain: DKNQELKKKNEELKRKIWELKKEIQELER

4H575-bH = biological target: T7, 4H575-bH; assay: two-hybrid library CCNG1
T7 chain: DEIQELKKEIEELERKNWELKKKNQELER

4H855-bH = biological target: T8, 4H855-bH; assay: two-hybrid library CCNG1
T8 chain: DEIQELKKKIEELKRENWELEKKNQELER

4H3926-bH = biological target: T9, 4H3926-bH; assay: two-hybrid library CCNG1
T9 chain: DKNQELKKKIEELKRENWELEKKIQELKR

4H754-bH = biological target: T10, 4H754-bH; assay: two-hybrid library CCNG1
T10 chain: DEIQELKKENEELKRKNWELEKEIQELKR

4H968-bH = biological target: T11, 4H968-bH; assay: two-hybrid library CCNG1
T11 chain: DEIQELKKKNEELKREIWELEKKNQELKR

4H780-bH = biological target: T12, 4H780-bH; assay: two-hybrid library CCNG1
T12 chain: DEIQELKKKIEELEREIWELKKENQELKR

4H683-bH = biological target: T13, 4H683-bH; assay: two-hybrid library CCNG1
T13 chain: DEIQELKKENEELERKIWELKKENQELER

4H457-bH = biological target: T14, 4H457-bH; assay: two-hybrid library CCNG1
T14 chain: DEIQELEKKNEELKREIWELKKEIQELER

zCON9_D = biological target: T15, zCON9_D; assay: two-hybrid library CCmax
T15 chain: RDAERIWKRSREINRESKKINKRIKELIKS

zCON9_B = biological target: T16, zCON9_B; assay: two-hybrid library CCmax
T16 chain: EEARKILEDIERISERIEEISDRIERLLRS

Binder	interaction score (4H346-bH)	interaction score (4H918-bH)	interaction score (4H797-bH)	interaction score (4H953-bH)	interaction score (4H850-bH)	interaction score (4H4073-bH)	interaction score (4H575-bH)	interaction score (4H855-bH)	interaction score (4H3926-bH)	interaction score (4H754-bH)	interaction score (4H968-bH)	interaction score (4H780-bH)	interaction score (4H683-bH)	interaction score (4H457-bH)	interaction score (zCON9_D)	interaction score (zCON9_B)	interaction score (zCON9_D; mean of both orientations)
DEIQELEKKIEELKRENWELKKEIQELKR [4H346-bH]	0.99	-3.17	0.329	0.155	-3.53	-0.154	-0.18	0.532	1.28	-0.0538	-0.466	0.0507	-1.17	0.311			
PKKEAEELAEESEELHDRSEKLHERAEQ [zCON9_A]															-2.12	-2.01	
EEARKILEDIERISERIEEISDRIERLLRS [zCON9_B]																2	-1.44
